Legend:
[1] = target: T1, SARS-CoV-2 prefusion-stabilized spike protein (SARS-CoV-2-PreS) (SARS-CoV-2, UniProt P0DTC2 14-1208); experiment: ELISA
[2] = target: SARS-CoV-2 Alpha B.1.1.7 spike on pseudovirus (SARS-CoV-2); experiment: cell-based or functional assay
[3] = target: SARS-CoV-2 Beta B.1.351 spike on pseudovirus (SARS-CoV-2); experiment: cell-based or functional assay
[4] = target: SARS-CoV-2 Gamma P.1 spike on pseudovirus (SARS-CoV-2); experiment: cell-based or functional assay
[5] = target: SARS-CoV-2 Omicron spike on pseudovirus (SARS-CoV-2); experiment: cell-based or functional assay
[6] = target: T1, SARS-CoV-2 prefusion-stabilized spike …; experiment: Biacore, apparent affinity
[7] = target: T2, Biotinylated CoV2 Spike ECD PreS-AVI protein (SARS-CoV-2, UniProt P0DTC2 14-1208); experiment: Octet binning; competitor 7A9
[8] = target: T2, Biotinylated CoV2 Spike ECD PreS-AVI …; experiment: Octet binning; competitor 8E9
[9] = target: T2, Biotinylated CoV2 Spike ECD PreS-AVI …; experiment: Octet binning; competitor 9B2
[10] = target: T2, Biotinylated CoV2 Spike ECD PreS-AVI …; experiment: Octet binning; competitor 11F8
[11] = target: T2, Biotinylated CoV2 Spike ECD PreS-AVI …; experiment: Octet binning; competitor 13C8
[12] = target: T2, Biotinylated CoV2 Spike ECD PreS-AVI …; experiment: Octet binning; competitor 15H1
[13] = target: T2, Biotinylated CoV2 Spike ECD PreS-AVI …; experiment: Octet binning; competitor 15H7
[14] = target: T2, Biotinylated CoV2 Spike ECD PreS-AVI …; experiment: Octet binning; competitor 1A11
[15] = target: T2, Biotinylated CoV2 Spike ECD PreS-AVI …; experiment: Octet binning; competitor Std-A
[16] = target: T2, Biotinylated CoV2 Spike ECD PreS-AVI …; experiment: Octet binning; competitor Std-B
[17] = target: T2, Biotinylated CoV2 Spike ECD PreS-AVI …; experiment: Octet binning; competitor Std-D

Binder | EC50 [1] | pseudovirus neutralization IC50 [2] | pseudovirus neutralization IC50 [3] | pseudovirus neutralization IC50 [4] | pseudovirus neutralization IC50 [5] | Kd [6] | binning response [7] | binning response [8] | binning response [9] | binning response [10] | binning response [11] | binning response [12] | binning response [13] | binning response [14] | binning response [15] | binning response [16] | binning response [17]
1A11 VHH-Fc (Fc fusion) QVQLVESGGGLVQAGGSLRLSCEVSGSIYSINSMGWYRQAPGKQRELVAGIVSDGRINYADSVKGRFTISRAKNTVYLQMNSLKPEDTAVYYCAADRAFVYAGDYDYLGQGTQVTVSS | 0.18 nM | 6.6 nM | 4.1 nM | 6.4 nM | 42 nM | < 0.2 nM | 0.38 | 0.1 | 0.13 | 0.13 | 0.11 | 0.14 | 0.14 | 0.1 | 0.35 | 0.34 | 0.06
15H7 VHH-Fc (Fc fusion) QVQLVESGGRLVQAGGSLRLSCAAPGRTFRNLTLGWFRQAPGKEREFVASTSWPDDEMTYYTDSVKGRFTISRDNAKNTVYLQMNSLKPEDTAVYYCAAASWSGRSTLSYDYDYWGQGTQVTVST | 0.05 nM |  |  |  |  | < 0.2 nM | 0.37 | 0.06 | 0.08 | 0.11 | 0.08 | 0.09 | 0.1 | 0.09 | 0.36 | 0.32 | 0.08
9B2 VHH-Fc (Fc fusion) QVQLVESGGGLVQPGGSLRLSCAASGFTLDNYAIGWFRQAPGKEREGVSCISSSDGDTQYADSVKGRFTISRDNAKNTVYLQMNSLKPEDTAVYYCAVEKVYARSWFFHLCSELDFGSWGQGTQVTVSS | 0.1 nM | 22 nM | 4.2 nM | 21 nM | 52 nM | < 0.2 nM | 0.36 | 0.09 | 0.1 | 0.11 | 0.12 | 0.13 | 0.11 | 0.1 | 0.32 | 0.32 | 0.05
5D7 VHH-Fc (Fc fusion) QVQLVESGGGLVQAGGSLRLSCAASGRTGSRYIMGWFRQAPGKEREFVAAINWRGDSTYYADSVKGRFTIARDNAKNTAYLQMNSLKPEDTAVYYCVADRGESYYYTRSTEYTYWGQGTQVTVSS | 0.11 nM |  |  |  | 221 nM | < 0.2 nM | 0.31 | 0.1 | 0.12 | 0.12 | 0.15 | 0.16 | 0.15 | 0.12 | 0.28 | 0.25 | 0.12
7A9 VHH-Fc (Fc fusion) QVQLVESGGGLVQAGGSLRLSCSASGGTASRSAMGWFRQAPGKEREFVAGISRRNSGSTYVADSYEDSVKGRFTISRDNAKNTIYLQMNSLKPEDTAVYYCAAEPTLGWYVPRRSVEYEYWGQGTQVTVSS | 0.16 nM |  |  |  | 44 nM | < 0.2 nM | 0.06 | 0.37 | 0.38 | 0.32 | 0.52 | 0.37 | 0.34 | 0.32 | 0.34 | 0.3 | 0.46
3D4 VHH-Fc (Fc fusion) QVQLVESGGGLVQPGGSLRLSCAASGFTLDLNSIGWFRQAPGKEREGVSCISPSGSRMHYADSVKGRFTISRDNAKNTVYLQMNSLKPEDTAVYYCATGSPSYHYCSMYGLEYDSWGQGTQVTVPS | 0.13 nM | 1.5 nM | 1.1 nM | 0.59 nM |  | < 0.2 nM | 0.32 | 0.08 | 0.09 | 0.09 | 0.1 | 0.1 | 0.09 | 0.08 | 0.34 | 0.31 | 0.04
19C10 VHH-Fc (Fc fusion) QVQLVESGGGLVQPGGSLRLSCAASGFTLDLNSIGWFRQAPGKEREGVSCISPSASSTHYADSVKGRFTISRDNAKNTVYLQMNSLKPEDTAVYYCATGTPSYHYCSMYGLEYDDWGQGTQVTVSS | 0.06 nM | 0.85 nM | 0.66 nM | 0.8 nM |  | < 0.2 nM | 0.36 | 0.1 | 0.11 | 0.12 | 0.1 | 0.1 | 0.1 | 0.08 | 0.35 | 0.35 | 0.04
5A6 VHH-Fc (Fc fusion) QVQLVESGGGLAQAGGSLRLSCATSGLTFSMSAMGWFRQAPGNEREFVGVINWNGGSSRYADSVRGRFTISRDNAKNTVYLQMNSLKPEDTGVYYCAADALNIGTGEVNPRLYDYWGQGTQVMVSS | 0.14 nM | 26 nM | 54 nM | 3.1 nM |  | < 0.2 nM | 0.37 | 0.09 | 0.11 | 0.09 | 0.09 | 0.12 | 0.1 | 0.09 | 0.39 | 0.35 | 0.03
8E9 VHH-Fc (Fc fusion) QVQLVESGGGLVEAGGSLRLSCVASGSSSSINAMGWYRQAPGKQRELVASISHDGETKYANSVKGRFTISRGNAKNTIYLQMNSLKPEDTAVYYCVGDVAWVVVAGEYDYWGQGTQVTVSS | 0.08 nM |  |  |  | 429 nM | < 0.2 nM | 0.39 | 0.08 | 0.11 | 0.11 | 0.11 | 0.13 | 0.11 | 0.09 | 0.36 | 0.34 | 0.04
1E4 VHH-Fc (Fc fusion) QVLLVESGGGLVQAGGLLRLACSASGRTFTENVMGWFRQAPGKEREFVAAINWNTGSTYYSDSRKGRFTISKDNAKNTMFLQINNLKPEDTAVYYCGGTSSSYYYIGEFIPDYWGQGTQVTVSS | 0.04 nM | 2.2 nM | 0.58 nM | 2.6 nM |  | < 0.2 nM | 0.26 | 0.09 | 0.11 | 0.11 | 0.12 | 0.11 | 0.11 | 0.09 | 0.28 | 0.24 | 0.08

Reference: US20250382355A1 (Merck Sharp & Dohme, published 2025)
